# Measurements as given in article PMC9616786 (Cellular and Molecular Life Sciences, 2022).
# Where no end group is shown, it is not given here. The star is where a group is joined. Biotin = O=C1N[C@H]2[C@H](CS[C@H]2CCCCC(=O)*)N1
# Target: T1, Calmodulin from bovine brain (bovine, UniProt P62157 1-149)
# T1 construct: calmodulin, bovine, purified from brain; also called purified bovine brain CaM; CaM; source: bought: Sigma-Aldrich Cat#208694, purified from bovine brain
# Experiment: SPR; Biacore 3000, 25 °C; biotinylated peptides captured on a streptavidin chip; CaM injected at 13.2 nM to 9.6 µM; HBSP (10 mM HEPES pH 7.4, 150 mM NaCl, 0.005% P20) with 1 mM CaCl2; equilibrium analysis, apparent KD
# Details: both partners purified
binder,measurement,value
"K(Biotin)GGSVKEGAQRKWAAAKEKAG (added N-terminal K (biotinylated) and two G residues as spacer; INF2, human, amino acids 2-19 with L14A and L18A; also called double L14L18A 2-19 peptide mutant; source: synthetic peptide (Proteomics Facility, CNB, CSIC), HPLC purified) [Peptide INF2 2-19 L14L18A, biotinylated (for surface plasmon resonance)]",binding result,binds
